Experiment: yeast display, Sf9 membrane polyspecificity reagent, FACS + sequencing; frameworks hold sequencing errors
How it was run: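 After 36–48 hours of galactose induction, yeast (Saccharomyces cerevisiae BJ5465) displaying a synthetic nanobody library were stained at 4 °C for 1 hour with 10% biotinylated, detergent-solubilized Sf9 membrane reagent. Streptavidin microbeads enriched the stained cells before FACS sorting into low and high (top ~1%) gates on anti-HA and streptavidin fluorescence. Each clone's polyreactivity label reflects its gate of origin.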

| Sequence | polyreactivity (PSR sort gate) |
| --- | --- |
| QVQLVESGGGLVQAGGSLRLSCAASGSTFAPYAMGWYRQAPGKERELVAAITWRGGSTYYADSVKGRFTISRDNAKYTVYLQMNSLKPEDTAVYYCNADGYVPDYEYWGQGTQVTVSS | high polyreactivity |
| QVQLVESGGGLVQAGGSLRLSCAASGSTFAQDALGWYRQAPGKERELVATISASGGTTYYADSVKGRFSISRDNAKNPVYLQMNSLKPEDTAVYYCAKRRVWWPAHRSYLYASEFGYWGQGTQVTVSS | low polyreactivity |
| QVQLVESGGGLVQAGGSLRLSCAASGSTFAQNAMGWYRQAPGKEREFVAAITGTVGSTYYADSVKGRFTISRDNAKNTVYLQMNSLKPEDTAVHYCAVVHVFYAVSYFSFYTYDYWGQGTQVTVSS | low polyreactivity |
| QVQLVESGGGLVQAGGSLRLSCAASGSTFAQNTKGWYRQAPGKERELVATISDGGGSTYYADSVKGRFTISRDNAKNTVYLQMNSLKPEDTAVYYCNTDRFWPSDYWGQGTQVTVSS | low polyreactivity |
| QVQLVESGGGLVQAGGSLRLSCAASGSTFAQNTMGWYRQAPGKERELVATISDGGGSTYYADSVKGRFTISRDNAKNTVYLQMNSLKPDDTAVYYCNTDRFWPSDYWGQGTQVTVSS | low polyreactivity |
| QVQLVESGGGLVQAGGSLRLSCAASGSTFAQYVMGWYRQAPWKERELFAAISRGGGRTYYADSVKGRFTISRDNAKNTVYLQMNSLKPEDTAVYYCAAETLGVYDYESYNYYWGQGTQVTVSS | high polyreactivity |
| QVQLVESGGGLVQAGGSLRLSCAASGSTFARNAMGRNRQAPGKERELVARITWSGSGTFYADPVKGRFTISRDNAKNTVYLQMYCLKPQDTAVYYCASEGPSAGFDYWGQGTQVTVSS | high polyreactivity |
| QVQLVESGGGLVQAGGSLRLSCAASGSTFARNTMGWYRHAPGKERELVAVITRGDSTYYADSVKGRFTISRDNAKNTVYLQMNSLKPEDTAGYYCNAYFRYAYPSKMDYWVQGTQVTVSS | low polyreactivity |
| QVQLVESGGGLVQAGGSLRLSCAASGSTFARYAMGWYRQAPGKERELVASITTGGRTYYADSVKGRFTITRDNAKYTVYLQMNSLKPEDTPVYFCNVLRYRGYDYWGQGTQVTVSS | high polyreactivity |
| QVQLVESGGGLVQAGGSLRLSCAASGSTFARYAMGWYRQAPGKERELVAVITQSGSSTYYADSVKGRFTISRDNAKNTVYLQMNSLKPEDTAVYYCAAVGIDYTRYGRYWYSYDYWGQGTQVTVSS | high polyreactivity |
| QVQLVESGGGLVQAGGSLRLSCAASGSTFASNAMGWYRQAPGKERELVAAIDWTGASTYYADSVKGRFTISRDNAKNTVYLQMNSLKPEDTAVYYCNADEYWNSRTQGYNYWGQGTQVTVSS | low polyreactivity |
| QVQLVESGGGLVQAGGSLRLSCAASGSTFASNMGWYRQAPGKERELVAGIRSSGSTYYADSVKGRFTISRDNAKNTVYLQMNSLKPEDTAVYSCNKGDYRTYPYDYWGQGTQVTVSS | low polyreactivity |
| QVQLVESGGGLVQAGGSLRLSCAASGSTFASNTMGWYRQAPGKERELVAAITQSGGTTYYADSVKGRFTISRDNAKNTVYLQMNSLKPEDTAVYYCAADATFIIRYLSRSDYWGQGTQVTVSS | low polyreactivity |
| QVQLVESGGGLVQAGGSLRLSCAASGSTFASNVMGWYRQAPGKERELVAAISRSGGNTYYADSVKGRFTISRDNAKNSVYLQMNSLKPEDTAVYYCAKYPFTRISYDYWGQGTQVTVSS | high polyreactivity |
| QVQLVESGGGLVQAGGSLRLSCAASGSTFASYAMGWYRQAPGKEREFVAAISRSGGSTYYADSVKGRFTISRDNAKNTVYLQMTSLKPEDTAVYYCAARSPSADEYYYWGQGTQVTVSS | low polyreactivity |
| QVQLVESGGGLVQAGGSLRLSCAASGSTFATYAMGWYRQAPGKERELVAVISRSGGSTYYADSVKGRFTISRDNAKNTVYLQMNSLKPEDTAVYYCNVPITPGRVKYDYWGQGTQVTVSS | high polyreactivity |
| QVQLVESGGGLVQAGGSLRLSCAASGSTFAVNAMGWYRQAPGKERELVAAISGSGGRTYYADSVKGRFTISRDNAKNTVYLQMNSLKPEDTAVYYCATELRASYRSSGAYHYDYWGQGTQVTVSS | low polyreactivity |

— the nanobody polyreactivity screen of Harvey et al. (2022)
